Target: LS-Rg, chimeric protein of the extracellular domain of human L-selectin joined to the Fc domain of a human G2 immunoglobulin (human) (UniProt P14151)
Assay: competition with radio-labeled 2'-F RNA ligand LF1807 for purified LS-Rg

LS-Rg, chimeric protein of the extracellular domain of human L-selectin joined to the Fc domain of a human G2 immunoglobulin (human), sequence (P14151 39-332, change not shown): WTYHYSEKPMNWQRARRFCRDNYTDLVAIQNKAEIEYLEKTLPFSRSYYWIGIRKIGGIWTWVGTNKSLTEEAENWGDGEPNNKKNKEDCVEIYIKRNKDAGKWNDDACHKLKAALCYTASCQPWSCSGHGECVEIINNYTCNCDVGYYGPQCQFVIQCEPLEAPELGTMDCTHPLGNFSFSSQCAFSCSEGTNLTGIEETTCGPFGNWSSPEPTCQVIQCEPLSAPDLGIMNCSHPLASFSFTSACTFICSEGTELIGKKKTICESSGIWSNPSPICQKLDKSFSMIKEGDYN

Substance: DREG-56, L-selectin specific blocking monoclonal antibody
- concentration at which inhibition was complete: 300 nM
